Results on 14 sequences are retold here after a protein production outcome set (Wang et al. 2014).

A short description of the data set: label from the status in PepcDB records.
For the sequence “MSLTKVSSLGYPRLGENREWKKLIEAYWAGKVSKNDLFAGAKELRLDFLKKQLNAGLDLIPVGDFSLYDHILDLSVQFNIIPKRFAKEPIDIDLYFAIARGNKENVASSMKKWFNTNYHYIVPEWSKQRPKLNNNRLLDLYLEAREVVGDKAKPVITGPITYVALSTGVEDFTAAVKSLLPLYKQVFTELVKAGASYIQVDEPIFVTDEGKDYLQAAKAVYAYFAKEVPDAKFIFQTYFEGLIDSQVLSQLPVDAFGLDFVYGLEENLEAIKTGAFKGKEIFAGVIDGRNIWSSDFVKTSALLETIEEQSAALTIQPSCSLLHVPVTTKNETDLDPVLRNGLAFADEKLTEVKRLAEHLDGREDPAYDLHIAHFDALQAADFRNVKLEDLSRVATKRPSDFAKRRDIQQEKLHLPLLPTTTIGSFPQSREIRRTRLAWKRGDISDAEYKQFIQAEIERWIRIQEDLDLDVLVHGEFERVDMVEFFGQKLAGFTTTKFGWVQSYGSRAVKPPIIYGDVQHLEPITVEETVYAQSLTDRPVKGMLTGPITITNWSFERTDIPRDQLFNQIGLAIKDEIKLLENAGIAIIQVDEAALREGLPLRKSKQKAYLDDAVHAFHIATSSVKDETQIHTHMCYSKFDEIIDAIRALDADVISIETSRSHGDIIESFETAVYPLGIGLGVYDIHSPRVPTKEEVVANIERPLRQLSPTQFWVNPDCGLKTRQEPETIAALKVLVAATKEVRQKLGNEGHHHHHH”, the protein production entry is “not failed”.
In the case of “MKPRDINKLIASKIFGYEIKDDNIIKDGRYRLGIPLYSQNIESAWQVVEKLEYDVKVTKTDLKPKYQVHVFVPGGVKMVFAETAPMAICKGALASVDIELQD”, the protein production result is “not failed”.
To “LDKMSKKTRQAIRTSKNKGVDIQFGSHELLEDFAELMKKTEDRKGINLRGIDYYQKLLDTYPNNSYITMASLDVAKRLEKIEKECQIAQSERIKSLELNREKKVKQHQGTIDRLNKEIDFLKEAQKAYDRDIIPLAATLTLEFGNTSENIYAGMDDYFKSYSAPIYTWFETAQRAFERGNIWQNMGGIENDLSGGLYHFKSKFEPII” belongs “failed”; to “MFFLLLTPFNAAASETNSDDATADAKNLSGTNAADTVVSQIIGASVYIEGEIYNNEYATISVTTKNEGDKSSEGHIIVAFPNNEEILSKEGSGDRVDIYPSGSSIETKDGTKIDSSEYLFVDLVKYDWETGKNETLNLKVKPNKGSEEIVYLVRAELMNDATGDYERYPGILSESSDVDQQGWYVYNNSFGVSGDPDLMIEDISWEPENPHENENVTFKVTLKNVGLASSGNCSVKCYLDGNEISFSTVSGLEADSTTSFTFNWVPTSSGSMDLKVVVDSEGQFVEFTEENNEKTGIFKVISYTNSSSPSSPSPGSGSSSSSSSSGGGAGGSPEPASNVEIKELAQQFVSNGNHAKFIFAKNVTSIAYIEFDPKKTVGKTTTIVETLKGKSTLVTELPTGKVYKNTNIWVGNEGTASSENIENAVVGFKVEKTWINSNGVDSSSVKLWAFEDEKWVELPTSQTDEDEDYVYYEADTPGFASFSIMALYPEENTEGTSLPLGSYVEDKDTKAVSETSEEESEVVDSEAGENNSGSMKKGLLAIGMLAAVILAGYVISRKQD”, “failed”; to “MRSRDFSSWIWGDALSLLQQADRLHRQLLRTGPAQAPCWEPPVDMIETESAVLIYVALPGVAAGDVAVRFDPDGISISGVRPLPALRNARIHGLEIPYGRFQRRIRLPLHALEPEAPTLADGCLTLTLKKLREAP”, “failed”.
To “MTTPEGGARKPRIGIMGEFSAGKSTLSNLLLGQRILPEQVTATRLPPVWIVQGDKPAQRAALDGSLHPMSLVDLEEISLEETLYVKIGIDAPVLDECDLIDFPGISDPNMPSEVWERMLAEVDSVLWCTHATQAWRQSEAAAWGMVPEAVRQRSLLLITRFDKLTTPLDKLRVQTRVARETEGLFAGVCPISLTEALAAAPDSPEWEASGAETFADALEAVVRAAACGGLPEAMPAQTQLTAPAAPEPAEPSTSAPQPAPGRVMPRRVRPKGETRTPRPSARPQAADQDLSALRREMQET” belongs “failed”.
To “MTRLAFVRKKEKNCGQCRICEVSCPMGIETENAEKYKGECISCIKCVEICPRYNMQLNFANQPVNPRYTSSLTVAGLFAVFSALSFLPSAKKIDTAKYNAIPSFADEDYQTDEENENINSSDNKQVETQQDYQAEIAQNNSQEANTSQNQISDQAQENAMTSKYQQNQSAAESYNSTETNQKSANVQSKTFEQAAENSQKTSLEKSQGSVQNSTYPVSSSNSSDESQQENVQANLSNATETSTQNFKVSNNTSETPKGISKIYKDGTYTGEGFGYRPGLVVEVTIKDDKITKIKIVSHNETQSFAQLPFEIIPQEIIQNQSTNVDIVSGATRTSYGIIMAVEDALNKAKIENESSLQN” belongs “failed”.
For “MSPTVLPATQADFPKIVDVLVEAFANDPTFLRWIPQPDPGSAKLRALFELQIEKQYAVAGNIDVARDSEGEIVGVALWDRPDGNHSAKDQAAMLPRLVSIFGIKAAQVAWTDLSSARFHPKFPHWYLYTVATSSSARGTGVGSALLNHGIARAGDEAIYLEATSTRAAQLYNRLGFVPLGYIPSDDDGTPELAMWKPPAMPTV”, the protein production entry is “not failed”.
To “MNAPLSHSRPMMQPSEDKSLATVFPFAGRVLDETPMLLGEGPTFDPASGTAWWFNILERELHELHLASGRKTVHALPFMGSALAKISDSKQLIASDDGLFLRDTATGVLTLHAELESDLPGNRSNDGRMHPSGALWIGTMGRKAETGAGSIYHVAKGKVTKLFADISIPNSICFSPDGTTGYFVDTKVNRLMRVPLDARTGLPTGKAEVFIDSTGIKGGMDGSVCDAEGHIWNARWGEGAVDRYDTDGNHIARYEVPGKQTTCPAFIGPDASRLLVTSAREHLDDDAITANPQHGLTFELGIEVKGRFEPLYRL” belongs “not failed”; to “MNRLREALKERGITQTELSTRLGKSFNMVNLYVANKHQPSIPTLFQIAEILDMDVRDLLVSNKQQNK”, “failed”; to “MSKARKTAASSGEPDFWRVARDWLHHWLPKVRGSSPKTVEAYRIGLESYVRWLETTEGTQRSHIGFGHFDRARLGRWVEWMRTERGYSDRTIMLRMTTMRVFLDHAGLEHPALTALGNDAAGIRVKPPARKPVDHLGEEHTKALLTAWGTGDAKSRRNRMLLILMYDTAARIGELAALTIADVGMDKPARVTLTGKRGKSRVVPLGERTRTHLAAYLEEFHPGPSMRDGDRPLFHSTRNGAIQPLSVDRIDEILKTAAARARRGTCPSMPERVHCHLIRRTRAMDLYQQGVPLPLIMQLLGHESMSTTSAFYAFATLDMMRKAVDAANPGPDPSKETWLSEQRLRQLHTLK”, “failed”.
For the sequence “MYLVCGEALFDVFSLESAARSNELGFTAIAGGSPFNVAVGLRRLGVEAALFGGLSSDYLGARLRRVLEEEGVDCGFLVPSDAPTTLAMVGLDASGSAQYQFRGEGCADRQVRLEHLPTLDGRIRGLHVGSYTLVVTPVADTLLALVRRESGRRLVSLDPNVRLDPQPDIDLWRRRVEAFASHAHLIKASEEDLALLYPGRDPGEVARGWLNPRCRLVFVTHGGAGASVHCTHGSWSRPADTALPLRDTVGAGDTFQAATLAYLRRLDADSPAGLAALSREAIDAMLAFAIRAAAVTCSRVGPDLPFAHEL”, the protein production entry is “failed”.
For the sequence “MEGITYMNLGTNDKLPKLNTHYSSLSKRLMASFFDNVIISALSYLLSIIIFIIMTIFSFRYLDEFINHIYLIYFSLHFLVAFFYYITMESSSFQGTLGKLIADIKVVKLNGDKVSIFQAFCRFFIANILLYPAYFFYALVLYNVSNQIIINHSCNPYKINSFYFYGLISSSLIYLIYKLVMLITILISNKKQGIHDILIKTLVIIR”, the protein production result is “failed”.
With “MPIVARSSRVPWVIKYRPKRVEDVVNQDQAKKILVPWFKAWLEGRKPDKRAALLYGPPGVGKTSLVEAIASEFNLEMIELNASDYRRRSDIERIVGAASRKRSMFKRGVVILLDEVDGINPREDAGGIEALLSVIKTTENPIVMTANDPWKDFLRPLREVSLMVEFRPLTLTHIVAVLQRICEAERIECEREALRYIAERSEGDLRSAINDLQAVAEGYGRVTLTLAREIVRGREKSIDIWRTLNQVFYKPRQAWMARKAVSQSEKDYEELIAWINDNIPRKYGEPSDLFRAFDALARATVFLGRAKFGGNWELLSYVFDLMGPGVAYARMEGEVLKTRYSYPEKIRMMAQLRGVRETREKLAEVLAKRLLMSRRAVKTEVLPILHYIFRSSRDPTKPAMIALEYGLTEKMVELLAGQRKSEILKAMATVKKARLGEKPLEPQEAKARRRGEKASRDEGRKAGKRERKGVGLDFFLGEQ”, the protein production entry is “failed”.
